Reference: patent US20200079833A1 (AstraZeneca / MedImmune, published 2020)
Starred links: 1 amine or outer side, 2 acyl side, 3 side chain; linkers in the order of their positions; H or OH if unused. Non-standard residues stand in square brackets, D forms with d. Groups on a side chain read outwards from the residue. Primed or numbered codes have the meaning given here. No end group written: not given here. *: point of attachment. γGlu = O=C(O)[C@H](CCC(=O)[*:2])N[*:1]; Stearoyl = CCCCCCCCCCCCCCCCCC(=O)*; Palmitoyl = CCCCCCCCCCCCCCCC(=O)*; αMeF = C[C@](N)(Cc1ccccc1)C(=O)O; αMeK = C[C@](N)(CCCCN)C(=O)O; αMeS = C[C@](N)(CO)C(=O)O; PEG2′ = not defined here; Aib = CC(C)(N)C(=O)O

biological target: T1, glucose-dependent insulinotropic peptide (gastric inhibitory polypeptide) receptor (GIPR) (human, UniProt P48546 22-466); assay: cell-based or functional assay
T1 sequence (looked up): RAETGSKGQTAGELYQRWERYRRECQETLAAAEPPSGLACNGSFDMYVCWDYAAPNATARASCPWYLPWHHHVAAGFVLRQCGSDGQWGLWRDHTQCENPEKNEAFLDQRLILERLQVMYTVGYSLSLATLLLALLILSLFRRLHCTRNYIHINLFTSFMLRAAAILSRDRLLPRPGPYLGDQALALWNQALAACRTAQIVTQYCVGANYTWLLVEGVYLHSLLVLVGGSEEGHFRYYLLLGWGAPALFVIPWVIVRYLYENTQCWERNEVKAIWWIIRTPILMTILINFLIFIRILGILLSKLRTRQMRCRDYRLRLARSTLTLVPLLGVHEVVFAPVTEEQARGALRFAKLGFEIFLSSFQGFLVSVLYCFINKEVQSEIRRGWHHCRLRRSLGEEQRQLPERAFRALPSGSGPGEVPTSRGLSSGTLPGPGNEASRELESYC

**Q.** With H[Aib]EGS[αMeF]TSDV[αMeS]S[αMeF]LEGK([PEG2′-PEG2′-γGlu-Stearoyl])AA[αMeK]E[αMeF]IA[αMeF]VV[αMeK]GG-NH2 [SEQ ID NO 112] as the binder, how does the “cAMP Primary assay EC50 GIP-R” value read?
**A.** Its value is 25 nM.

**Q.** And the “cAMP Primary assay EC50 GIP-R (2nd)” value?
**A.** Its value is 25.4 nM.

**Q.** How did the “cAMP Primary assay EC50 GIP-R” value turn out when H[Aib]EGS[αMeF]TSDV[αMeS]S[αMeF]LEGEAAK([PEG2′-PEG2′-γGlu-Palmitoyl])E[αMeF]IA[αMeF]VV[αMeK]GG-NH2 [SEQ ID NO 109] was run?
**A.** Its value is 26 nM.

**Q.** And the “cAMP Primary assay EC50 GIP-R (2nd)” value?
**A.** The value was 25.6 nM.

**Q.** For H[Aib]EGS[αMeF]TSDV[αMeS]S[αMeF]LEGEAA[αMeK]E[αMeF]IA[αMeF]VK([PEG2′-PEG2′-γGlu-Stearoyl])[αMeK]GG-NH2 [SEQ ID NO 102], which “cAMP Primary assay EC50 GIP-R” value is on record?
**A.** The value was 25 nM.

**Q.** And the “cAMP Primary assay EC50 GIP-R (2nd)” value?
**A.** Its value is 25.2 nM.

**Q.** For H[Aib]EGS[αMeF]TSDV[αMeS]S[αMeF]LEGEAA[αMeK]E[αMeF]IK([PEG2′-PEG2′-γGlu-Stearoyl])[αMeF]VV[αMeK]GG-NH2 [SEQ ID NO 105], which “cAMP Primary assay EC50 GIP-R” value is on record?
**A.** The value was 25 nM.

**Q.** And the “cAMP Primary assay EC50 GIP-R (2nd)” value?
**A.** Its value is 25 nM.

**Q.** For H[Aib]EGS[αMeF]TSDV[αMeS]S[αMeF]LEGEAA[αMeK]E[αMeF]K([PEG2′-PEG2′-γGlu-Stearoyl])A[αMeF]VV[αMeK]GG-NH2 [SEQ ID NO 106], which “cAMP Primary assay EC50 GIP-R” value is on record?
**A.** The value was 25 nM.

**Q.** And the “cAMP Primary assay EC50 GIP-R (2nd)” value?
**A.** Its value is 25.3 nM.

**Q.** For H[Aib]EGS[αMeF]TSDV[αMeS]S[αMeF]LEGEK([PEG2′-PEG2′-γGlu-Stearoyl])A[αMeK]E[αMeF]IA[αMeF]VV[αMeK]GG-NH2 [SEQ ID NO 111], which “cAMP Primary assay EC50 GIP-R” value is on record?
**A.** Its value is 25 nM.

**Q.** And the “cAMP Primary assay EC50 GIP-R (2nd)” value?
**A.** Its value is 25 nM.

biological target: glucagon receptor (GCGR) (human, UniProt P47871 26-477); assay: cell-based or functional assay
Sequence (P47871 26-477): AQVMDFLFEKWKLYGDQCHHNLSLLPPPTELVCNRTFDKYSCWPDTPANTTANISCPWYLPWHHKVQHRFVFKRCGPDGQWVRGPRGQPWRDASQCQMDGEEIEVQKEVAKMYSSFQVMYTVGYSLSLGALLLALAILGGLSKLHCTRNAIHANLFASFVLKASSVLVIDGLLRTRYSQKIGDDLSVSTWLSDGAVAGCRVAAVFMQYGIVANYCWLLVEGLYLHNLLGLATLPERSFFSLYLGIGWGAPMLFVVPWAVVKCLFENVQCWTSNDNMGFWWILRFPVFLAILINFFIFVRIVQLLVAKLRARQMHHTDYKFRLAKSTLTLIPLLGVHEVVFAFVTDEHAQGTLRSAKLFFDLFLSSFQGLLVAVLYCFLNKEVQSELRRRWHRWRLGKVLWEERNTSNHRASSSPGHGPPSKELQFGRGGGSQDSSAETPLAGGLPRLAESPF

**Q.** How did the “cAMP Primary assay EC50 Gluc-R” value turn out when H[Aib]EGS[αMeF]TSDV[αMeS]S[αMeF]LEGK([PEG2′-PEG2′-γGlu-Stearoyl])AA[αMeK]E[αMeF]IA[αMeF]VV[αMeK]GG-NH2 [SEQ ID NO 112] was run?
**A.** The value was 25 nM.

**Q.** What about the “cAMP Primary assay EC50 Gluc-R (2nd)” value of the same binder?
**A.** The value was 25.4 nM.

**Q.** H[Aib]EGS[αMeF]TSDV[αMeS]S[αMeF]LEGEAAK([PEG2′-PEG2′-γGlu-Palmitoyl])E[αMeF]IA[αMeF]VV[αMeK]GG-NH2 [SEQ ID NO 109] was tested. Which “cAMP Primary assay EC50 Gluc-R” value did it give?
**A.** The value was 26 nM.

**Q.** What about the “cAMP Primary assay EC50 Gluc-R (2nd)” value of the same binder?
**A.** The value was 25.6 nM.

**Q.** What does the source list for H[Aib]EGS[αMeF]TSDV[αMeS]S[αMeF]LEGEAA[αMeK]E[αMeF]IA[αMeF]VK([PEG2′-PEG2′-γGlu-Stearoyl])[αMeK]GG-NH2 [SEQ ID NO 102]?
**A.** cAMP Primary assay EC50 Gluc-R: 25 nM; cAMP Primary assay EC50 Gluc-R (2nd): 25.2 nM

**Q.** H[Aib]EGS[αMeF]TSDV[αMeS]S[αMeF]LEGEAA[αMeK]E[αMeF]IK([PEG2′-PEG2′-γGlu-Stearoyl])[αMeF]VV[αMeK]GG-NH2 [SEQ ID NO 105] was tested. Which “cAMP Primary assay EC50 Gluc-R” value did it give?
**A.** Its value is 25 nM.

**Q.** What about the “cAMP Primary assay EC50 Gluc-R (2nd)” value of the same binder?
**A.** The value was 25 nM.

**Q.** With H[Aib]EGS[αMeF]TSDV[αMeS]S[αMeF]LEGEAA[αMeK]E[αMeF]K([PEG2′-PEG2′-γGlu-Stearoyl])A[αMeF]VV[αMeK]GG-NH2 [SEQ ID NO 106] as the binder, how does the “cAMP Primary assay EC50 Gluc-R” value read?
**A.** The value was 25 nM.

**Q.** And the “cAMP Primary assay EC50 Gluc-R (2nd)” value?
**A.** The value was 25.3 nM.

**Q.** What does the source list for H[Aib]EGS[αMeF]TSDV[αMeS]S[αMeF]LEGEK([PEG2′-PEG2′-γGlu-Stearoyl])A[αMeK]E[αMeF]IA[αMeF]VV[αMeK]GG-NH2 [SEQ ID NO 111]?
**A.** cAMP Primary assay EC50 Gluc-R: 25 nM; cAMP Primary assay EC50 Gluc-R (2nd): 25 nM

biological target: GLP-1 receptor (GLP-1R) (human, UniProt P43220 24-463); assay: cell-based or functional assay

**Q.** For H[Aib]EGS[αMeF]TSDV[αMeS]S[αMeF]LEGK([PEG2′-PEG2′-γGlu-Stearoyl])AA[αMeK]E[αMeF]IA[αMeF]VV[αMeK]GG-NH2 [SEQ ID NO 112], which “cAMP Mean pM GLP-1R” value is on record?
**A.** Its value is 6 pM.

**Q.** And the “cAMP Primary assay EC50 GLP-1R n1” value?
**A.** The value was 0.0061 nM.

**Q.** What about the “cAMP Primary assay EC50 GLP-1R n2” value of the same binder?
**A.** Its value is 0.00507 nM.

**Q.** H[Aib]EGS[αMeF]TSDV[αMeS]S[αMeF]LEGEAAK([PEG2′-PEG2′-γGlu-Palmitoyl])E[αMeF]IA[αMeF]VV[αMeK]GG-NH2 [SEQ ID NO 109] was tested. Which “cAMP Mean pM GLP-1R” value did it give?
**A.** The value was 34 pM.

**Q.** What about the “cAMP Primary assay EC50 GLP-1R n1” value of the same binder?
**A.** Its value is 0.034 nM.

**Q.** What about the “cAMP Primary assay EC50 GLP-1R n2” value of the same binder?
**A.** Its value is 0.0346 nM.

**Q.** For H[Aib]EGS[αMeF]TSDV[αMeS]S[αMeF]LEGEAA[αMeK]E[αMeF]IA[αMeF]VK([PEG2′-PEG2′-γGlu-Stearoyl])[αMeK]GG-NH2 [SEQ ID NO 102], which “cAMP Mean pM GLP-1R” value is on record?
**A.** The value was 22 pM.

**Q.** And the “cAMP Primary assay EC50 GLP-1R n1” value?
**A.** Its value is 0.024 nM.

**Q.** And the “cAMP Primary assay EC50 GLP-1R n2” value?
**A.** The value was 0.0206 nM.

**Q.** Which “cAMP Mean pM GLP-1R” value does the source give for H[Aib]EGS[αMeF]TSDV[αMeS]S[αMeF]LEGEAA[αMeK]E[αMeF]IK([PEG2′-PEG2′-γGlu-Stearoyl])[αMeF]VV[αMeK]GG-NH2 [SEQ ID NO 105] here?
**A.** Its value is 18 pM.

**Q.** What about the “cAMP Primary assay EC50 GLP-1R n1” value of the same binder?
**A.** The value was 0.021 nM.

**Q.** What about the “cAMP Primary assay EC50 GLP-1R n2” value of the same binder?
**A.** Its value is 0.0148 nM.

**Q.** What does the source list for H[Aib]EGS[αMeF]TSDV[αMeS]S[αMeF]LEGEAA[αMeK]E[αMeF]K([PEG2′-PEG2′-γGlu-Stearoyl])A[αMeF]VV[αMeK]GG-NH2 [SEQ ID NO 106]?
**A.** cAMP Mean pM GLP-1R: 6140 pM; cAMP Primary assay EC50 GLP-1R n1: 6.5 nM; cAMP Primary assay EC50 GLP-1R n2: 5.79 nM

**Q.** H[Aib]EGS[αMeF]TSDV[αMeS]S[αMeF]LEGEK([PEG2′-PEG2′-γGlu-Stearoyl])A[αMeK]E[αMeF]IA[αMeF]VV[αMeK]GG-NH2 [SEQ ID NO 111] was tested. Which “cAMP Mean pM GLP-1R” value did it give?
**A.** The value was 17 pM.

**Q.** What about the “cAMP Primary assay EC50 GLP-1R n1” value of the same binder?
**A.** The value was 0.018 nM.

**Q.** And the “cAMP Primary assay EC50 GLP-1R n2” value?
**A.** The value was 0.0164 nM.
